Test results reported in publication PMC5551578.

Target: HIV-1 92BR-gp120 (HIV-1 (92BR))
Assay: BLI

B1: gp120-Ab8 (antibody, V domains shown)
VH: EVQLVESGGGVVQPGRSLRLSCAASGFTFSFYGMHWVRQAPGKGLEWVAVISYDGRIKSYADSVKGRFTTSRDNSKNTLYLEMSSLRVEDTAVYYCAKSLVGATLLGPFGPWGQGSLVTVSS
VL: SYELTQPPSVSVAPGQTARITCGGDKIGGERVHWYQQKPGQAPVLVVYDDRDRPSGIPERFSGSNSGNTATLTISRVEAGDEADYYCQVRDSTSDHYVFGSGTKVTVL
Kd: 89.3 nM
